Assay results taken from article PMC10403280.

Assays:
[1] = target: affibody Z_(SPA-1); assay: SPR; BIAcore T100; about 100 RU of biotinylated affibody captured on a streptavidin (SA) chip, the partner flowed over in two-fold dilutions; HBS-P+; 1:1 binding model or steady-state affinity model; which partner was captured is not told
[2] = target: affibody ZpA963; assay: as above
[3] = target: affibody ZpA963, second protein (Z-B) of the yeast-displayed single chain; assay: on-yeast cleavage-capture assay; settings: 60 min after 3C protease cleavage; parent: est. 63; read off a plot
[4] = target: Z domain of staphylococcal protein A, displayed on yeast (first protein, Z-A); assay: flow cytometry on cells; on-yeast cleavage-capture assay, test of fluorescently labelled anti-HA antibodies of different valency (Fab, IgG mAb, Fab+streptavidin complex); staining after 3C cleavage as % of uncleaved cells
[5] = target: Z domain of staphylococcal protein A, displayed on yeast (first protein, Z-A); assay: flow cytometry on cells; on-yeast cleavage-capture assay: Aga2-cMyc-ZA-linker (3C site)-ZB-HA on S. cerevisiae EBY100, stained with Alexa Fluor 488 anti-cMyc and Alexa Fluor 647 anti-HA antibody, cut with 3C protease (0.4 mg/mL in MACS buffer, 4°C); HA-tag MFI as % of the MFI before cleavage
[6] = target: Z domain of staphylococcal protein A, displayed on yeast (first protein, Z-A); assay: on-yeast cleavage-capture assay; settings: 60 min after 3C protease cleavage; parent: est. 63; read off a plot

Substance: Z domain of staphylococcal protein A (domain or fragment)
- Kd [1]: 2.92 µM
- Kd [2]: 0.01 µM

Substance: Z domain of staphylococcal protein A, displayed on yeast (first protein, Z-A) L17I
- response [3]: 66 % max.

Substance: affibody ZpA963, second protein (Z-B) of the yeast-displayed single chain (designed binder)
- % of the staining of uncleaved cells kept after 3C cleavage (anti-HA Fab+SA complex) [4]: 69.9%
- % of the staining of uncleaved cells kept after 3C cleavage (anti-HA IgG mAb) [4]: 45.8%
- % of HA-tag fluorescence kept after an hour of 3C protease cleavage [5]: 68.7%

Substance: affibody ZpA963, second protein (Z-B) of the yeast-displayed single chain I31V
- response [6]: 30 % max.

Substance: affibody ZpA963, second protein (Z-B) of the yeast-displayed single chain L35I
- response [6]: 26 % max.
